Experimental data from article PMC5549741, “Engineering double-stranded RNA binding activity into the Drosha double-stranded RNA binding domain results in a loss of microRNA processing function”.

Biological target: T1, Drosha-Quad dsRBD (human, UniProt Q9NRR4 1259-1337, K1262I;I1317K;Q1318K;E1321K)
T1 sequence: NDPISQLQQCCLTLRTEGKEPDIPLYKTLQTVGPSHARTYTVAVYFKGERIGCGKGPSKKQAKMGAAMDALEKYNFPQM
Assay: EMSA; 50 mM sodium cacodylate pH 6.0, 50 mM KCl, 5% glycerol, 1 mM DTT, 0.1 mg/mL BSA, 0.1 mg/mL herring sperm DNA, 30 min at room temperature; 10% native gel at 4 C; Hill fit
Details: protein: recombinant, tags: pET-47b(+) vector

[1] = label: 5'-32P top strand, blunt

B1: ds22 (dsRNA)
RNA 1: GUCAGCAGUGCCUUAGCAGCAC
RNA 2: GUGCUGCUAAGGCACUGCUGAC
Question: With B1 as the binder, how does the Kd [1] read?
Answer: The Kd was 13.4 ± 0.4 µM.

B2: pri-mir-16-1 (structured_RNA)
RNA: GGGUGAUAGCAAUGUCAGCAGUGCCUUAGCAGCACGUAAAUAUUGGCGUUAAGAUUCUAAAAUUAUCUCCAGUAUUAACUGUGCUGCUGAAGUAAGGUUGACCAUACUCUAC
Question: With B2 as the binder, how does the Kd (label: 32P (5' end implied), hairpin, stem region contains 39 bp) read?
Answer: The Kd was 2.8 ± 0.1 µM.

B3: ds33 (dsRNA)
RNA 1: GGUCAGCAGUGCCUUAGCAGCACGUAAAUAUGG
RNA 2: CCAUAUUUACGUGCUGCUAAGGCACUGCUGACC
Question: Which Kd [1] does the source give for B3 here?
Answer: Its Kd is 7.8 ± 0.2 µM.

B4: ds44 (dsRNA)
RNA 1: GGUCAGCAGUGCCUUAGCAGCACGUAAAUAUUGGCGUUAAGACC
RNA 2: GGUCUUAACGCCAAUAUUUACGUGCUGCUAAGGCACUGCUGACC
Question: For B4, which Kd [1] is on record?
Answer: The Kd was 6.5 ± 0.6 µM.
